Reference: patent WO2022210830A1 (dated 2022)
Like-named read-outs stand apart in the source and are kept apart here.

What was measured:
[1] = target: SARS-CoV-2 spike protein, Wuhan type (WT), on pseudotype virus SARS-CoV-2 St19pv (SARS-CoV-2, UniProt P0DTC2 14-1273); assay: cell-based or functional assay
[2] = target: T1, SARS-CoV-2 spike protein (SARS-CoV-2, UniProt P0DTC2 14-1273); assay: competition ELISA: antibody + biotin-ACE2 on immobilised spike
[3] = target: T1, SARS-CoV-2 spike protein
[4] = target: T2, SARS-CoV Receptor binding domain (RBD) protein (SARS-CoV, UniProt P59594 306-527); assay: ELISA, immobilised domain protein, 200 ng/ml antibody
[5] = target: T3, SARS-CoV-2 N-terminal domain (NTD) protein (SARS-CoV-2, UniProt P0DTC2 14-305); assay: ELISA, immobilised NTD
[6] = target: T2, SARS-CoV Receptor binding domain (RBD) …; assay: ELISA, immobilised SARS-CoV RBD
[7] = target: T3, SARS-CoV-2 N-terminal domain (NTD) …; assay: ELISA, immobilised domain protein, 200 ng/ml antibody

B1: 0210-28K (antibody, V domains shown)
VH: QMQLVQSGPEVKKPGTSVKVSCKASGFTFSISAVQWVRQARGQRLEWIGWIVVGSGNTNYAQKFQERVTITRDMSTSTAYMELSSLRFEDTAVYYCAAPYCGGDCSDGFDIWGQGTMVTVSS
VL: not shown
For B1, the “IC50, inhibition of pseudotype virus infection, 1st experiment” value [1] was 8.4 ng/mL, the “IC50, inhibition of pseudotype virus infection, 2nd experiment” value [1] was 30.3 ng/mL and the IC50 [2] was roughly 0.15 µg/mL.

B2: 1028-05K (antibody, V domains shown)
VH: QVTLKESGPVLVKPTETLTLTCTVSGFSLSNARMGVSWIRQPPGKALEWLAHIFSNDEKSYSTSLKRRLTISKDTPKSQVVLTMTNMDPVDTATYYCARTLGFWSGEYYYYYMDVWGKGTTVTVSS
VL: EIVMTQSPATLSVSPGERATLSCRASQSVSSSYLAWYQQKPGQAPRLLIYGASTRATGIPARFSGSGSGTEFTLTISSLQSEDFAVYYCQHYNNWPPLFTFGPGTKVDIKR
B2 was tested, and the IC50 [3] was no less than 10 µg/mL, the binding result [4] was “binds” and the binding result [5] was “no binding (tested: 200 ng/ml)”.

B3: 1028-37K (antibody, V domains shown)
VH: QVQLQQSGPGLVKPSQTLSLTCDISGDSVSSNSVAWNWIRQSPSRGLEWLGRTYYRSKWYNDYAVSVKSRITINPDTSKNQFSLQLNSVTPEDTAVYYCASGGYQLLYDDAFDIWGQGTMVTVSS
VL: not shown
With B3 the IC50 [3] was roughly 0.7 µg/mL, the binding result [4] was “binds” and the binding result [5] was “no binding (tested: 200 ng/ml)”.

B4: 1028-121K (antibody, V domains shown)
VH: QVTLKESGPVLVKPTETLTLTCTVSGFSLSDARMGVSWIRQPPGKALEWLAHIFSNDEKSYNTSLKSRLTISKDTSKSQVVLTMTNMDPVDTATYYCARALGFWSGYYYYYYMDVWGKGTTVTVSS
VL: not shown
In the case of B4, the IC50 [3] is reported as roughly 7.5 µg/mL, the binding result [4] is reported as “binds” and the binding result [5] is reported as “no binding (tested: 200 ng/ml)”.

B5: 1028-29K (antibody, V domains shown)
VH: QVQLVQSGAEVKKPGASVKVSCKASGYTFTSYYMHWVRQAPGQGLEWMGIINPSGGSTSYAQKFQGRVTMTRDTSTSTVYMELSSLRSEDTAVYYCARDGTPDIVVVPAAPLDYWGQGTLVTVSS
VL: EIVLTQSPATLSLSPGERATLSCRASQSVSSYLAWYQQKPGQAPRLLIYDVSNRATGIPARFSGSGSGTDFTLTISSLEPEDFAVYYCQQRSNWPPVLTFGGGTKVEIKR
B5: no binding (tested: 200 ng/ml) [6]; binds [7].

B6: 1028-62L (antibody, V domains shown)
VH: QVQLQESGPGLVKPSGTLSLTCAVSGGSISSSNWWSWVRQPPGKGLEWIGEIYHSGSTNYNPSLKSRVTISVDKSNNQFSLKLSSVTAADTAVYYCARGWNYDYWGQGTLVTVSS
VL: QSALTQPASVSGSPGQSITISCTGTSSDVGSYNLVSWYQQHPGKAPKLMIYEGSKRPSGVSNRFSGSKSGNTASLTISGLQAEDEADYYCCSYAGSSTWVFGGGTKLTVLG
B6: no binding (tested: 200 ng/ml) [6]; binds [7].

B7: 1028-106K (antibody, V domains shown)
VH: QLQLQESGPGLVKPSETLSLTCTVSGGSISSSYHYWGWIRQPPGKGLEWIGTIYYSGSTYYNPSLKSRVTISVDTSKNQFSLKLSSVTAADTAVYYCARRGYSYDSSGDGVDYWGQGTLVTVSS
VL: DIQMTQSPSSLSASVGDRVTITCRASQGIRNDLGWYQQKPGKAPKRLIYAASSLQSGVPSRFSGSGSGTEFTLTISSLQPEDFATYYCLQHNSYPLTFGGGTKVEIKR
B7: no binding (tested: 200 ng/ml) [6]; binds [7].

B8: 1028-137K (antibody, V domains shown)
VH: QVHLVESGGGVVQPGRSLRLSCAASGFTFNSYAMHWVRQAPGKGLEWVAVISYDGNNKYYADSVKGRFTISRDNSKNTLYLQMNSLRAEDTAVYYCARDDDSGSYLYYFDYWGQGTLVTVSS
VL: not shown
B8: no binding (tested: 200 ng/ml) [6]; binds [7].

B9: 1028-164L (antibody, V domains shown)
VH: QVTLRESGPALVKPTQTLTLTCTFSGFSLSTSGMCVSWIRQPPGKALEWLALIDWDDDKYYSTSLKTRLTISKDTSKNQVVLTMTNMDPVDTATYYCARIPVEMATIGDYYYYGMDVWGQGTTVTVSS
VL: not shown
B9: no binding (tested: 200 ng/ml) [6]; binds [7].

B10: 1028-55K (antibody, V domains shown)
VH: EVQLVESGGGLVQPGGSLRLSCAASGFIVSSNYMSWVRQAPGKGLEWVSLIYSGGSTYYVDSVKGRFTISRDNTKNTLYLQMNSLRAEDTAVYYCARDLDVRGALDIWGQGTMVIVSS
VL: not shown
B10 was tested, and the binding result [6] was “no binding (tested: 200 ng/ml)”, the IC50 [3] was roughly 0.3 µg/mL and the binding result [5] was “no binding (tested: 200 ng/ml)”.

B11: 1028-61L (antibody, V domains shown)
VH: EVQLVESGGGLVQPGGSLRLSCAASGIDVSSNYMSWVRQAPGKGLEWVSVIYSGGSTYYADAVRGRFTISRHNSKNTLYLQMNSLRAEDAAVYYCARDAQRYGMDVWGQGTTVTVSS
VL: SYVLTQPPSVSVAPGKTARITCGGNNIGSNTVHWYQQKPGQAPVLVIYYDSDRPSGIPERFSGSNSGNTATLTISRVEAGDEADYYCQLWDSSSDHVVFGGGTKLTVLG
For B11, the binding result [6] was “no binding (tested: 200 ng/ml)”, the IC50 [3] was roughly 0.25 µg/mL and the binding result [5] was “no binding (tested: 200 ng/ml)”.

B12: 0210-30L (antibody, V domains shown)
VH: QVQLVQSGAEVKKPGSSVKVSCKASGGTFSSYAINWVRQAPGQGLEWMGRIIPILGRANYAQKFQGRVTITADKSTSTAYMELSSLRSEDTAVYYCARNPEEFSSSYVYYYYMDVWGKGTTVTVSS
VL: QSALTQPRSVSGSPGQSVTISCTGTSSDVGGYSYVSWYQQHPDKAPKLMIYDVSKRPSGVPDRFSGSKSGNTASLTISGLQAEDEADYYCCSYAGSYTSWVFGGGTKLTVLG
Work on B12 yielded an IC50 [2] of roughly 0.2 µg/mL.

B13: 0210-38L (antibody, V domains shown)
VH: EVQLVESGGGLVQPGGSLRLSCAASGFTFNSYWMSWVRQAPGKGLEWVADIKQDGSEKYYVDSVKGRFTISRDNAKNSLYLQMNSLRAEDTAVYYCARQLYYYGPIDYWGQGTLVTVSS
VL: NFMLTQPHSVSESPGKTVTISCTRSSGSIASNYVQWYQQRPGSSPTTVIYEDNQRPSGVPDRFSGSIDSSSNSASLTISGLKTEDEADYYCQSYDSNNRVFGGGTKLTVLG
In the case of B13, the IC50 [2] is reported as roughly 1.5 µg/mL.

B14: 1028-25K (antibody, V domains shown)
VH: QVQLVESGGGVVQPGRSLRLSCAASEFTFSGYAMHWVRQAPGKGLEWVAVISYDGINKYYADSVKGRFTISRDNSKNTLYLQMSSLRAEDTAVYYCARDPDYGDEGAFDYWGQGTLVTVSS
VL: not shown
B14: no binding (tested: 200 ng/ml) [6]; no binding (tested: 200 ng/ml) [5].

B15: 1028-30K (antibody, V domains shown)
VH: QVQLVQSGAEVKKPGSSVKVSCKASGGTFNTYAISWVRQAPGQGLEWMGGIIPIFGTANYAQKFQGRVTITADESTSTAYMELSSLRSEDTAVYYCARGEPGYCSGGNCYSSDYWGQGTLVTVSS
VL: not shown
B15: no binding (tested: 200 ng/ml) [6]; no binding (tested: 200 ng/ml) [5].

B16: 1028-50K (antibody, V domains shown)
VH: EVQLVESGGGLVKPGGSLRLSCAASGFTFSSYIMNWVRQAPGKGLEWVSSISSSSYIYYADSVKGRFTISRDNAKNSLYLQMNSLRAEDTAVYYCARIVGATSYYYYGMDVWGQGTTVTVSS
VL: not shown
B16: no binding (tested: 200 ng/ml) [6]; no binding (tested: 200 ng/ml) [5].

B17: 1028-65K (antibody, V domains shown)
VH: QVQLVQSGAEVKKPGASVKVSCKASGYTFSSYYMHWVRQAPGQGLEWMGIINPSGGSTSYAQKFQGRVTMTRDTSTSTVYMELSSLRSEDTAVYFCAREGRAAAETDNNWFDPWGQGTLVTVSS
VL: not shown
B17: no binding (tested: 200 ng/ml) [6]; no binding (tested: 200 ng/ml) [5].

B18: 1028-68L (antibody, V domains shown)
VH: QVQLVESGGGVVQPGRSLRLSCAASGFTFSSYAMHWVRQAPGKGLEWVAVISYDGSNKYYADSVKGRFTISRDNSKNTLYLQMNSLRAEDTAVYYCARADGSGWNYWGQGTLVTVSS
VL: SYELTQPPSVSVSPGQTARITCSGDPLPKQYAYWYQQKPGQAPVLVIYKDSERPSGIPERFSGSSSGTTVTLTISGVQAEDEADYYCQSADSSGTYGWEFGGGTKLTVLG
B18: no binding (tested: 200 ng/ml) [6]; no binding (tested: 200 ng/ml) [5].

B19: 1028-84K (antibody, V domains shown)
VH: QVQLVESGGGVVQPGRSLRLSCAASGFTFSNYAMHWVFQAPGMGLEWVAVISYDGINKYYADSVKGRFTISRDNSKNTLYLQMNSLRAEDTAVYYCASHRDDYVDSADAFDIWGQGTMVTVSS
VL: not shown
B19: no binding (tested: 200 ng/ml) [6]; no binding (tested: 200 ng/ml) [5].

B20: 1028-87L (antibody, V domains shown)
VH: not shown
VL: QAGLTQPPSVSKGLRQTATLTCTGNSNNVGNQGAAWLQQHQGHPPKLLSYRNNNRPSGISERLSASRSGNTASLTITGLQPEDEADYYCSAWDSSLSAQVFGGGTKLTVLG
B20: no binding (tested: 200 ng/ml) [6]; no binding (tested: 200 ng/ml) [5].
